Measured values taken from paper PMC12593362, “Mapping the Role of Monomer Conformation in the Amyloid Formation of α‑Synuclein Splice Variants” (Journal of the American Chemical Society, 2025).

Target: the molecule itself
Assay: thioflavin T fluorescence + pelleting assay + negative stain TEM; de novo self-assembly into amyloid fibrils; 100 μM monomer in 20 mM sodium phosphate pH 7.4 with 0 mM NaCl, 37 °C, shaking with a Teflon polyball

B1: α-synuclein splice variant lacking the residues encoded by exons 3 and 5 (αSynΔ3Δ5) (natural protein)
chain: not shown
notes: made from the αSynΔ3 construct with the exon 5 deletion primers; natural splice isoform; No tag is named; Used as soluble monomer and as sonicated fibril seeds; source: E. coli BL21 DE3, purified (boiling, ammonium sulfate precipitation, anion exchange, SEC)
B1: binds.
